# From patent publication US11999794B2, “Human mesothelin chimeric antigen receptors and uses thereof” (Novartis AG, priority 2013, dated 2024)
# Entries after “also recorded” stand apart in the source; their conditions may differ.
# Experiments:
# Ovcar8 = Ovcar8 xenograft model (Example 8); format: in vivo, NSG mice; settings: OVCAR8-mcherry; 10×10^6 T cells, about 4×10^6 CART cells
# Procedure: Anti-tumor activity of CART-MSLN was assessed in vivo in an Ovcar8 xenograft model. 10×10^6 Ovcar8 cells were implanted subcutaneously on day 0 in NSG mice. At day 14, 2×10^6 CART cells (CARTs expressing M5, M11, M17, M21, SS1, and CD19, or untransduced cells; 10×10^6 total T cells) in a 100 μl dose was administered intravenously. Mice and tumors were monitored for about 40 days after tumor cell implantation.
# A second in vivo xenograft experiment was performed to assess the anti-tumor activity of a second set of CART-MSLN cells. 10×10^6 OVCAR8-mcherry cells were injected into NSG mice. Once tumors were 150-250 mm^2, mice were randomized into treatment groups. CARTs expressing M12, M14, M16, M23, ss1, CD19, or untreated cells were injected at a dose of 10×10^6 T cells in 100 μl. About 40% of T cells were expressing CAR, and therefore at the administered dosage, about 4×10^6 CART cells were delivered to each animal.
# [1] = molecular target: T1, biotinylated mesothelin ECD (Homo sapiens, UniProt Q13421); assay: Surface plasmon resonance (Biacore T200) binding affinity of purified scFvs; settings: for Kd: 1:1 Binding or Steady State Affinity fit; for ka / kd: 1:1 Binding fit
# T1 construct: made in house; host or cells: HEK293F (transient)
# Procedure: Binding affinity of purified scFvs was measured on a Biacore T200 system. Briefly, recombinant human biotinylated mesothelin ECD was immobilized on a streptavidin (SA) sensor chip surface at a density of 150 RU. Purified scFv was injected over the chip under constant flow rate at three-fold serial dilutions. Association and dissociation rates of the protein complex were monitored for 270 seconds and 400 seconds, respectively. Double referencing was performed against a blank immobilized flow cell and a buffer blank. Affinity was determined with a Langmuir 1:1 binding model when possible, for those scFVs where accurate fitting was not possible due to fast on and off rates, the steady state model was used.
# [2] = Size exclusion chromatography (oligomerization state of expressed scFvs); format: physicochemical; settings: purified scFv
# Procedure: Size exclusion chromatography was performed to determine the oligomerization states of the expressed scFvs. 25 μg each was injected onto a TSKGel Super SW3000 4.6 mm×300 mm column (Tosoh Bioscience) heated to 35° C. The scFvs were eluted at 0.3 mL/min in 750 mM arginine, 1 mM EDTA, 20 mM sodium phosphate, 250 mM sodium chloride, pH 7.2; the UV absorbance was monitored at 280 nm.
# [3] = molecular target: T1, biotinylated mesothelin ECD; assay: SPR relative epitope binning in comparison to SS1; format: binding; settings: 50 nM SS1 captured first, then scFv at 100 nM
# Procedure: In embodiments, the competition assay is an SPR-based assay. Briefly, the antigen, e.g., human mesothelin, is immobilized on a surface. Through a microflow system, a reference antibody is injected over the antigen layer. Upon binding of the reference antibody to the antigen, an increase in signal, typically expressed in response units (RU) is detected, e.g., reference signal. After a desired time, a test antibody is injected over the antigen layer. If the test antibody binds to a different region or epitope of the antigen, then an additional increase in signal is detected, e.g., a 5% or more, 10% or more, 15% or more, 20% or more, 25% or more, 30% or more, 35%, or more, 40% or more, 45% or more, 50% or more, 55% of more, 60% or more, 65% or more, 70% or more, 75% or more, 80% or more, 85% or more, 90% or more, or 95% or more increase in signal, e.g., RU, as compared to the highest signal detected upon binding of the reference antibody, e.g., the reference signal. If the test antibody binds to the same region or epitope of the antigen, then little or no increase in signal, e.g., RU, will be detected, e.g., less than 20%, less than 15%, less than 10%, less than 5%, less than 4%, less than 3%, less than 2%, or less than 1% increase in signal, e.g., RU, as compared to the highest signal detected upon binding of the reference antibody, e.g., the reference signal. When using this SPR-based competition assay, an antibody is said to compete with the reference antibody when less than 20%, less than 15%, less than 10%, less than 5%, less than 4%, less than 3%, less than 2%, or less than 1% increase in signal, e.g., RU, is detected when compared to the reference signal detected upon binding of the reference antibody to the antigen. An antibody is said to not compete, or compete poorly, with a reference antibody when a 5% or more, 10% or more, 15% or more, 20% or more, 25% or more, 30% or more, 35%, or more, 40% or more, 45% or more, 50% or more, 55% of more, 60% or more, 65% or more, 70% or more, 75% or more, 80% or more, 85% or more, 90% or more, or 95% or more increase in signal, e.g., RU, is detected when compared to the reference signal detected upon binding of the reference antibody to the antigen.
# To determine the relative binding epitope of each of the scFvs in comparison to SS1, 50 nM SS1 was captured by biotinylated mesothelin ECD immobilized on a streptavidin sensor chip at a contact time of 180 seconds resulting in a relative density of 70 RU. Purified scFv at 100 nM (M5, M11, M12, M14, M16, M17, M21, or M23) was then immediately injected over the chip to minimize dissociation of the SS1/mesothelin complex. Binding of the secondary scFv was monitored for 270 seconds.
# Ovcar3 = assay: Luciferase-based killing assay; format: cell-based, human
# Procedure: The ability for the CART-MSLN to target and kill tumor cells was also assessed in vitro. A luciferase-based assay was used, with tumor cell lines expressing luciferase reporters. Target cells (tumor cells) were plated at 20,000 targets/well. CART-MSLN were added at varying effector:target ratios, from 10:1, 5:1, 2.5:1, and 1:1. The cells were cultured for 20 hours, and the luminescence of each well was detected to determine the percentage of target cells killed. Luciferase-expressing Ovcar3 (ovarian cancer) and U87 mg (glioblastoma) cell lines were used as target cells.
# T1 sequence (Q13421 with tags, fused parts or gaps): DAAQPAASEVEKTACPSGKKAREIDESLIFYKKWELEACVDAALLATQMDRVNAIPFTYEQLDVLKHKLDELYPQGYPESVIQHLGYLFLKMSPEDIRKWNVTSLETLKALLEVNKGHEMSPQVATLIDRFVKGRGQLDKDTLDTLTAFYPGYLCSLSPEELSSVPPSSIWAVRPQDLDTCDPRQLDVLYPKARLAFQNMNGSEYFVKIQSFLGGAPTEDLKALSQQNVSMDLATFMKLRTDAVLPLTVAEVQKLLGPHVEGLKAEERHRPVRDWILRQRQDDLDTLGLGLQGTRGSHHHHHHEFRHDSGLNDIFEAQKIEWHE
Molecule,Kd [1] [nM],ka [1] [M⁻¹ s⁻¹],kd [1] [s⁻¹],"effect on tumor growth, second xenograft experiment (Ovcar8)",% Monomer (SEC) [2] [%],relative epitope binning against SS1 on human mesothelin [3],"killing of target tumor cells (Ovcar3; E:T 10:1 to 1:1, 20 hours, FIG. 16A)",specific killing within the panel of human meso CARs (Ovcar3; FIGS. 17A and 17B)
M12: human anti-mesothelin scFv SEQ ID NO: 50; full CAR SEQ ID NO: 74 (protein) scFv: QVQLVQSGAEVKKPGASVKVSCKASGYTFTGYYMHWVRQAPGQGLEWMGRINPNSGGTNYAQKFQGRVTMTTDTSTSTAYMELRSLRSDDTAVYYCARTTTSYAFDIWGQGTMVTVSSGGGGSGGGGSGGGGSGGGGSDIQLTQSPSTLSASVGDRVTITCRASQSISTWLAWYQQKPGKAPNLLIYKASTLESGVPSRFSGSGSGTEFTLTISSLQPDDFATYYCQQYNTYSPYTFGQGTKLEIK,307,–,–,did not have an effect on tumor growth,70,Competitive binding; also recorded: competitive binders with SS1,–,–
M16: human anti-mesothelin scFv SEQ ID NO: 54; full CAR SEQ ID NO: 78 (protein) scFv: EVQLVESGGGLVQPGRSLRLSCAASGFTFDDYAMHWVRQAPGKGLEWVSGISWNSGSTGYADSVKGRFTISRDNAKNSLYLQMNSLRAEDTALYYCAKDSSSWYGGGSAFDIWGQGTMVTVSSGGGGSGGGGSGGGGSSSELTQEPAVSVALGQTVRITCQGDSLRSYYASWYQQKPGQAPVLVIFGRSRRPSGIPDRFSGSSSGNTASLIITGAQAEDEADYYCNSRDNTANHYVFGTGTKLTVL,22.7,174000,0.00395,did not have an effect on tumor growth,94.5,Competitive binding; also recorded: competitive binders with SS1,–,–
M14: human anti-mesothelin scFv SEQ ID NO: 52; full CAR SEQ ID NO: 76 (protein) scFv: QVQLVQSGAEVRAPGASVKISCKASGFTFRGYYIHWVRQAPGQGLEWMGIINPSGGSRAYAQKFQGRVTMTRDTSTSTVYMELSSLRSDDTAMYYCARTASCGGDCYYLDYWGQGTLVTVSSGGGGSGGGGSGGGGSGGGGSDIQMTQSPPTLSASVGDRVTITCRASENVNIWLAWYQQKPGKAPKLLIYKSSSLASGVPSRFSGSGSGAEFTLTISSLQPDDFATYYCQQYQSYPLTFGGGTKVDIK,0.9,2.75e+06,0.00251,did not have an effect on tumor growth,74.5,Competitive binding; also recorded: competitive binders with SS1,–,–

# More lines, in order of falling Kd [1], values ahead:
Kd [1] [nM],ka [1] [M⁻¹ s⁻¹],kd [1] [s⁻¹],Molecule,"effect on tumor growth, second xenograft experiment (Ovcar8)",% Monomer (SEC) [2] [%],relative epitope binning against SS1 on human mesothelin [3],"killing of target tumor cells (Ovcar3; E:T 10:1 to 1:1, 20 hours, FIG. 16A)",specific killing within the panel of human meso CARs (Ovcar3; FIGS. 17A and 17B)
114,–,–,M23: human anti-mesothelin scFv SEQ ID NO: 61; CDRs in Tables 4 and 5 (protein) scFv: QVQLQQSGAEVKKPGASVKVSCKASGYTFTNYYMHWVRQAPGQGLEWMGIINPSGGYTTYAQKFQGRLTMTRDTSTSTVYMELSSLRSEDTAVYYCARIRSCGGDCYYFDNWGQGTLVTVSSGGGGSGGGGSGGGGSGGGGSDIQLTQSPSTLSASVGDRVTITCRASENVNIWLAWYQQKPGKAPKLLIYKSSSLASGVPSRFSGSGSGAEFTLTISSLQPDDFATYYCQQYQSYPLTFGGGTKVDIK,did not have an effect on tumor growth,91,Competitive binding; also recorded: competitive binders with SS1,–,–
110,–,–,M21: human anti-mesothelin scFv SEQ ID NO: 59; CDRs in Tables 4 and 5 (protein) scFv: QVQLVQSWAEVKKPGASVKVSCKASGYTFTSYYMHWVRQAPGQGLEWMGIINPSGGSTSYAQKFQGRVTMTRDTSTSTVYMELSNLRSEDTAVYYCARSPRVTTGYFDYWGQGTLVTVSSGGGGSGGGGSGGGGSGGGGSDIQLTQSPSTLSASVGDRVTITCRASQSISSWLAWYQQKPGKAPKLLIYKASSLESGVPSRFSGSGSGTEFTLTISSLQPDDFATYYCQQYSSYPLTFGGGTRLEIK,–,>98,Competitive binding; also recorded: competitive binders with SS1,–,–
27.8,522000,0.0145,M17: human anti-mesothelin scFv SEQ ID NO: 55; full CAR SEQ ID NO: 79 (protein) scFv: EVQLVESGGGLVQPGRSLRLSCAASGFTFDDYAMHWVRQAPGKGLEWVSGISWNSGSTGYADSVKGRFTISRDNAKNSLYLQMNSLRAEDTALYYCAKDSSSWYGGGSAFDIWGQGTMVTVSSGGGGSGGGGSGGGGSSSELTQDPAVSVALGQTVRITCQGDSLRSYYASWYQQKPGQAPVLVIYGKNNRPSGIPDRFSGSSSGNTASLTITGAQAEDEADYYCNSRGSSGNHYVFGTGTKVTVL,–,>98,Competitive binding; also recorded: competitive binders with SS1,performed similarly well in killing target tumor cells,highest specific killing of Ovcar3 cells
